Laboratory results taken from article PMC6713331.

Molecular target: FLAG-tagged BVLF1 (Epstein-Barr virus)
Test: co-IP; FLAG-tagged BVLF1 as bait with BFRF2 together with BGLF3 or BGLF3(T42A) in 2089 cells; anti-FLAG M2 agarose; anti-Myc blot; quantitation from two independent experiments

B1: BFRF2 (natural protein)
chain: MALFLARHTLSGTGAGCHGRGPAPDVSEVDLTLQALGERGFSRLLDLGLACLDLSYVEMREFVVWGRPPASEAAVASTPGSLFRSHSSAYWLSEVERPGGLVRWARSQTSPSSLTLAPHLGPSLLSLSVVTGGGCGAVAFCNAFFLAYFLVVRSVFPAFSDRIAAWICDRSPFCENTRAVARGYRGLVKRFLAFVFERSSYDPPLLRQNSRPVERCFAIKNYVPGLDSQSCVTVPSFSRWAQSHASELDPREIRDRVTPATAPSFVADHASALLASLQKKASDTPCGNPIQWMWYRLLVNSCLRSAHCLLPIPAVSEGGRKTGGGVGEELVGAGGPCLSRDVFVAIVSRNVLSCLLNVPAAGPRAYKCFRSHASRPVSGPDYPPLAVFCMDCGYCLNFGKQTGVGGRLNSFRPTLQFYPRDQKEKHVLTCHASGRVYCSNCGSAAVGCQRLAEPPSARSGWRPRIRAVLPHNAAYELDRGSRLLDAIIPCLGPDRTCMRPVVLRGVTVRQLLYLTLRTEARAVCSICQQRQAPEDARDEPHLFSSCLEVELPPGERCAGCRLYQTRYGTPAAQAHPPGEAGGGFSRQSPAS
fold increase of the BVLF1-BFRF2 interaction with wild type BGLF3 relative to no BGLF3: 6 fold
